These results are taken from article PMC11045668 (Nature chemical biology, 2023).

This data set concerns the molecule itself. Put plainly: SEC.

B1: soluble transhydrogenase from E. coli (EcSTH), recombinant, with N-terminal Hisx6-tag and C-terminal FLAG-tag (enzyme, Escherichia coli, UniProt P27306 1-466, looked up)
chain: MPHSYDYDAIVIGSGPGGEGAAMGLVKQGARVAVIERYQNVGGGCTHWGTIPSKALRHAVSRIIEFNQNPLYSDHSRLLRSSFADILNHADNVINQQTRMRQGFYERNHCEILQGNARFVDEHTLALDCPDGSVETLTAEKFVIACGSRPYHPTDVDFTHPRIYDSDSILSMHHEPRHVLIYGAGVIGCEYASIFRGMDVKVDLINTRDRLLAFLDQEMSDSLSYHFWNSGVVIRHNEEYEKIEGCDDGVIMHLKSGKKLKADCLLYANGRTGNTDSLALQNIGLETDSRGQLKVNSMYQTAQPHVYAVGDVIGYPSLASAAYDQGRIAAQALVKGEATAHLIEDIPTGIYTIPEISSVGKTEQQLTAMKVPYEVGRAQFKHLARAQIVGMNVGTLKILFHRETKEILGIHCFGERAAEIIHIGQAIMEQKGGGNTIEYFVNTTFNYPTMAEAYRVAALNGLNRLF
The stoichiometry N is a count of units in the complex or per binding partner. B1: the “stoichiometry N” value is 12.
